Results as given in US20250146022A1, “STABILISING THE HUMAN SPINDLE BY KIFC1/HSET” (MAX-PLANCK-GESELLSCHAFT ZUR FOERDERUNG DER WISSENSCHAFTEN …, priority 2021, published 2025).

Columns and labels:
[1] = tested on: mouse oocytes; assay: AURA inhibition in mouse oocytes, NUMA enrichment at spindle poles; format: cell-based; settings: constitutive treatment, 500 nM; data not shown
Text: aMTOCs enrich several regulatory kinases at the spindle poles in mouse oocytes (26). The inventors considered that AURA, which is an essential kinase for aMTOC functions (43, 44) and can phosphorylate NUMA (45), negatively regulates NUMA enrichment at microtubule minus-ends in mouse oocytes. […] To confirm that NUMA enrichment is regulated by AURA-dependent phosphorylation, the inventors depleted endogenous NUMA by follicle RNAi (39) and re-expressed NUMA with mutations at the AURA phosphorylation site S1969. […] Together, the inventors infer that AURA phosphorylation negatively regulates NUMA enrichment at microtubule minus-ends in mouse oocytes. All drugs were prepared in DMSO (Sigma-Aldrich) as 1000× stocks. […] Specific parameters used were: 0.1 (for microtubule packing index) or 1.0 (for SD of fluorescence intensity within spindle isosurface) μm for smoothing size, no background subtraction, 500-750 and 1000-1750 μm^3 for minimum and maximum expected total volume of surface object, respectively. SD of fluorescence intensity, volume and volume of the object-oriented minimum bounding box for the spindle isosurface were exported into Excel. Microtubule packing index was calculated by dividing the volume of spindle isosurface by the volume of the object-oriented minimum bounding box. […] Mean fluorescence intensity and volume of isosurfaces were exported into Excel. […]

[2] = tested on: KIFC1/HSET-depleted aMTOC-free mouse oocytes; assay: Rescue of spindle polarity in KIFC1/HSET-depleted aMTOC-free mouse oocytes (human oocyte mimics); format: cell-based
Text: This domain, together with the conserved, microtubule-binding motor domain, allows KIFC1/HSET to organize microtubules via crosslinking and/or sliding (86). To investigate the requirement of different domains in KIFC1/HSET, the inventors expressed a series of truncation mutants in aMTOC-free mouse oocytes (FIG. 7K). […] To examine whether the motor activity is dispensable for the function of KIFC1/HSET in aMTOC-free mouse oocytes, the inventors depleted endogenous KIFC1/HSET by follicle RNAi and restored expression with wild-type HSET or with HSET(N593K), which crosslinks microtubules but cannot slide (87). […] Together, the inventors infer that the appropriate level of KIFC1/HSET's crosslinking and sliding activities are required for proper bipolar spindle assembly in the absence of aMTOCs.
Mouse follicles were microinjected with 3.5 pl of siRNAs at a needle concentration of 2 μM as previously described (11). For rescue experiments, in vitro grown oocytes were microinjected with 3.5 pl of mRNAs. mClover3-HSET mRNA was microinjected at a needle concentration of 275 ng/μl, mClover3-HSET(N593K) mRNA at 275 ng/μl, mClover3-NUMA(S1955D) mRNA at 400 ng/μl, mClover3-NUMA(S1955A) mRNA at 400 ng/μl, mClover3-NUMA(SpM-4A) mRNA at 400 ng/μl, mClover3-NUMA(ΔMTBD1) mRNA at 400 ng/μl and mClover3-NUMA(ΔMTBD2) mRNA at 400 ng/μl. Oocytes were allowed to express the mRNAs for 3-4 h before release.
To obtain mouse MI spindles, oocytes were incubated at 37° C. for around 7 h after released into dbcAMP-free medium. To obtain porcine and bovine MI spindles, oocytes were incubated at 39° C./5% CO2 for around 11 and 12 h, respectively, after released into RO-3306-free medium. To obtain human MI spindles, oocytes were incubated at 37° C. for around 14 and 15 h after NEBD. None of the oocytes used for immunofluorescence analyses was subjected to live imaging before fixation.
Time-lapse movies of live mouse, bovine and porcine oocytes, and fixed human and mouse spindles were analyzed in 3D using Imaris (Bitplane). To determine the stages of meiosis and to score for spindle instability, the timing of meiotic progression was quantified relative to the timing of NEBD. NEBD was defined as the time point when the sharp boundary between the nucleus and cytoplasm disappeared in the differential interference contrast image (for mouse oocytes) or when the nucleus started collapsing in the H2B channel (for bovine and porcine oocytes). Spindle poles were defined as regions of MAP4 or MAP4-MTBD or α-tubulin intensity that prominently protruded from the main microtubule mass. In FIG. 1D, oocytes with bipolar spindle, in which ends of all microtubules converged at the poles, were scored as having focused poles. […] For mouse oocytes, unfocused poles were further classified into mildly unfocused poles (with partially separated microtubule ends) and severely unfocused poles (with fully separated microtubule ends). In FIG. 4D, bovine and porcine oocytes, in which the spindle maintained a barrel-shaped bipolar morphology and a detectable spindle axis, were scored as having stable spindle poles. Oocytes, in which the spindle lost their initial bipolarity and underwent dynamic remodeling of the pole(s) were scored as having unstable spindle poles. […] Oocytes, in which the spindle had more than two poles, were scored as having multipolar spindle. In FIG. 1H, mouse oocytes, in which the spindle had two well-defined poles, were scored as having bipolar spindle. Mouse oocytes, in which the spindle had two poorly defined poles, were scored as having apolar/round spindle. Mouse oocytes, in which the spindle had more than two poles, were scored as having multipolar spindle. […] Mouse oocytes, in which the spindle lost its barrel shape but contains several weakly associated microtubule bundles, were scored as having disorganized spindle.

| Molecule | NUMA enrichment at the spindle poles [1] | HSET to α-tubulin intensity ratio, more HSET loaded onto spindles with poorly focused poles ([2]; bipolar MI spindles rescued with wild-type HSET, FIG. 3I) [fold] | spindle polarity (manual scoring) ([2]; endogenous KIFC1/HSET depleted by follicle RNAi, expression restored from mRNA, MI oocytes, FIGS. 3, G and H) | oocytes with a bipolar spindle but poorly focused poles that lacked NUMA ([2]; oocytes rescued with wild-type HSET, FIG. 3G) |
| --- | --- | --- | --- | --- |
| COc1cc(Nc2ncc3c(n2)-c2ccc(Cl)cc2C(c2c(F)cccc2OC)=NC3)ccc1C(=O)O [MLN8237] | increased NUMA enrichment at the spindle poles | – | – | – |
| wild-type HSET: Wild-type HSET re-expressed from microinjected mClover3-HSET mRNA in KIFC1/HSET-depleted aMTOC-free mouse oocytes (protein, left off: large carriers, Wild-type HSET re-expressed from microinjected mClover3-HSET mRNA in KIFC1/HSET-depleted aMTOC-free mouse oocytes) MDPQRSPLLEVKGNIELKRPLIKAPSQLPLSGSRLKRRPDQMEDGLEPEKKRTRGLGATTKITTSHPRVPSLTTVPQTQGQTTAQKVSKKTGPRCSTAIATGLKNQKPVPAVPVQKSGTSGVPPMAGGKKPSKRPAWDLKGQLCDLNAELKRCRERTQTLDQENQQLQDQLRDAQQQVKALGTERTTLEGHLAKVQAQAEQGQQELKNLRACVLELEERLSTQEGLVQELQKKQVELQEERRGLMSQLEEKERRLQTSEAALSSSQAEVASLRQETVAQAALLTEREERLHGLEMERRRLHNQLQELKGNIRVFCRVRPVLPGEPTPPPGLLLFPSGPGGPSDPPTRLSLSRSDERRGTLSGAPAPPTRHDFSFDRVFPPGSGQDEVFEEIAMLVQSALDGYPVCIFAYGQTGSGKTFTMEGGPGGDPQLEGLIPRALRHLFSVAQELSGQGWTYSFVASYVEIYNETVRDLLATGTRKGQGGECEIRRAGPGSEELTVTNARYVPVSCEKEVDALLHLARQNRAVARTAQNERSSRSHSVFQLQISGEHSSRGLQCGAPLSLVDLAGSERLDPGLALGPGERERLRETQAINSSLSTLGLVIMALSNKESHVPYRNSKLTYLLQNSLGGSAKMLMFVNISPLEENVSESLNSLRFASKVNQCVIGTAQANRK | – | ~2 | assembled a bipolar spindle | around 25% |
